For two substances, fold less staining than E-Cw*03 SCT, percent of cells stained and mean fluorescent intensity (MFI) results are on record in US20050196404A1.

Test [1] addresses E-hsp60 SCT (HLA-E SCT harboring the hsp60-derived peptide …) (human). Kind of test: flow cytometry, stably transfected LLC-PK1 cells.
Test [2] deals with E-Cw*03 SCT (HLA-E single chain trimer with the peptide …) (human). Briefly: flow cytometry, sorted E-Cw*03 SCT LLC-PK1 stable transfectants. (A flow cytometer gives signals particle by particle.)
For test [3], the target named is HLA-E SCD (HLA-E single chain dimer) (human). Kind of test: flow cytometry, stably transfected LLC-PK1 cells.
The target of test [4] is E-Cw*03 SCT (HLA-E single chain trimer with the peptide …) (human). Briefly: flow cytometry, stably transfected LLC-PK1 cells.

In test [1], HLA-E-specific mAb MEM-E/6 (antibody) gave a fold less staining than E-Cw*03 SCT of 4 to 5 fold.
Take HLA-E-specific mAb 3D12 (antibody): the percent of cells stained in test [2] came to 100%. Besides, the mean fluorescent intensity (MFI) in test [3] was 62 MFI; in test [4], 375 MFI.
